# Assay results published in article PMC12409439 (The Journal of Biological Chemistry, 2025).
# B1: Saccharomyces cerevisiae Dmc1 (natural protein, S. cerevisiae)
# chain: MSVTGTEIDSDTAKNILSVDELQNYGINASDLQKLKSGGIYTVNTVLSTTRRHLCKIKGLSEVKVEKIKEAAGKIIQVGFIPATVQLDIRQRVYSLSTGSKQLDSILGGGIMTMSITEVFGEFRCGKTQMSHTLCVTTQLPREMGGGEGKVAYIDTEGTFRPERIKQIAEGYELDPESCLANVSYARALNSEHQMELVEQLGEELSSGDYRLIVVDSIMANFRVDYCGRGELSERQQKLNQHLFKLNRLAEEFNVAVFLTNQVQSDPGASALFASADGRKPIGGHVLAHASATRILLRKGRGDERVAKLQDSPDMPEKECVYVIGEKGITDSSD
# notes: Dmc1, S. cerevisiae, expressed from a plasmid encoding 6XHisDmc1; Stood as a helical filament assembled with a 96-mer ssDNA, ADP, Mg2+ and Ca2+; six protomers were modelled; No removal of the His tag is described; The N-terminal end of the tag is read from the printed name 6XHisDmc1; also called Dmc1-ADP; source: E. coli BL21 (DE3) Rosetta2, purified (Talon resin, heparin sepharose)
# Target: the molecule itself
# Experiment: cryo-EM structure; Dmc1 (2.5 uM) with 0.125 uM 96-mer ssDNA in HR buffer with 1.5 mM CaCl2 and 5 mM ADP, 30 °C, 5 min, then 8 mM CHAPSO; interdigitated filaments deconvolved into single filaments; filament formation required the ssDNA
protein,measurement,value
B1,binding result,binds
